The conditions of this data set: Escherichia coli (strain K12), whole UniProt chain shown.
[1] abbreviates: pH 7, Thermal, CD, Potassium phosphate 10 mM.
Setting [2] is: pH 8, 30 °C, GdnHCl, Fluorescence, Tris-HCl 50 mM.

“And” between values parts separate entries of the source, which are not always exact repeats. Identical values can stand only once.

B1: Glutaredoxin 1 wild type, P68688 (protein)
chain: MQTVIFGRSGCPYCVRAKDLAEKLSNERDDFQYQYVDIRAEGITKEDLQQKAGKPVETVPQIFVDQQHIGGYTDFAAWVKENLDA
Usually Tm stands for the temperature at which the thermal transition is half complete. For B1, the unfolding free energy runs as follows: (pH 7, 25 °C, Thermal, CD, Potassium phosphate 10 mM) 19.7 kJ/mol; (pH 7, 30 °C, Thermal, CD, Potassium phosphate 10 mM) 17.2 kJ/mol and 20.9 kJ/mol; under setting [2], 17.6 kJ/mol and 25.5 kJ/mol. Further, the Tm under setting [1] was 55 °C and 57 °C. In addition, under setting [1], the “unfolding enthalpy (van 't Hoff)” value is 280 kJ/mol and 314 kJ/mol. Further, the “denaturant midpoint (higher = more stable)” value under setting [2] is 2 M.
